Measured values published in patent publication US20210214414A1 (Pfizer, published 2021).

Columns and labels:
[1] = target: T1, Rabbit SLIT2-N (rabbit, UniProt G1TMD3 31-1121); assay: HTRF competition: d2-labelled rabbit SLIT2-N binding to human ROBO2 on HEK293 cells; geometric mean, n=3
T1 construct: domain: SLIT2-N; d2-labelled in the HTRF assay
T1 sequence: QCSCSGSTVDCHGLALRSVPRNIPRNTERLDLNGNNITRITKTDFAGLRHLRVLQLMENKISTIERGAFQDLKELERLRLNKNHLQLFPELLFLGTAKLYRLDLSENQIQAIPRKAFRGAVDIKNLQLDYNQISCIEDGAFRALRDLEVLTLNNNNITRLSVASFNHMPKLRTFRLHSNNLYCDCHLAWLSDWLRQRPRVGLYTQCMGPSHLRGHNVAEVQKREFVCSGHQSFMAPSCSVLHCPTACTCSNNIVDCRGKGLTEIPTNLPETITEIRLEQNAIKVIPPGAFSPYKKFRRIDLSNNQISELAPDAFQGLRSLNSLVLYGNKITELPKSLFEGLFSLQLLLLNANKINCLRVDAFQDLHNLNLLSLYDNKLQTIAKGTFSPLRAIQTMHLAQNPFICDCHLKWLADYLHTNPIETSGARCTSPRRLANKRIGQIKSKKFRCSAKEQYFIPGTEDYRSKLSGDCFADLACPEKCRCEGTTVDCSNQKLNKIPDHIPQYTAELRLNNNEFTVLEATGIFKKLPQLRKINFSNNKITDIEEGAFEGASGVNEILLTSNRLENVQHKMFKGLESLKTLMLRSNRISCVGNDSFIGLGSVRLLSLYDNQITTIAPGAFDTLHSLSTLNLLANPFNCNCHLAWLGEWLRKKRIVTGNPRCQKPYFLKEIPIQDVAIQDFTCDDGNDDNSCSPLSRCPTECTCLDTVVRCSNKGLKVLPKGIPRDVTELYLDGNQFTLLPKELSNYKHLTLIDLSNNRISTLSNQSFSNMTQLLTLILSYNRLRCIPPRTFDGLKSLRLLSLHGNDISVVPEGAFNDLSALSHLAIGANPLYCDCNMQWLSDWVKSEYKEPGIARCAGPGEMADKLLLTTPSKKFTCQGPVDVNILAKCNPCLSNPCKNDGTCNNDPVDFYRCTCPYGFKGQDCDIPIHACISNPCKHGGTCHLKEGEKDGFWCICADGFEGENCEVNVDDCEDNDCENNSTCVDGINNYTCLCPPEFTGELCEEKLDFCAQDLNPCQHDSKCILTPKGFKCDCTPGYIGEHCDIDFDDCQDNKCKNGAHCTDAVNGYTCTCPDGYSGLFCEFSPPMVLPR
Method: (§1) After incubation, fluorescence at 665 nm and 620 nm was measured on an Envision multilabel plate reader. The HTRF Ratio was calculated as follows: fluorescence at 665 nm/fluorescence at 620 nm×10,000. […] The IC₅₀ for each SLITx-N was determined using an 11-point, 4-fold dilution series with a top concentration of 4000 nM.

[2] = target: T2, Rat SLIT2-N (rat, UniProt Q9WVC1 31-766, limits assumed); assay: HTRF competition: d2-labelled rat SLIT2-N binding to human ROBO2 on HEK293 cells (competitor: cell surface ROBO2)
T2 construct: domain: SLIT2-N (N terminal fragment)
T2 sequence (looked up): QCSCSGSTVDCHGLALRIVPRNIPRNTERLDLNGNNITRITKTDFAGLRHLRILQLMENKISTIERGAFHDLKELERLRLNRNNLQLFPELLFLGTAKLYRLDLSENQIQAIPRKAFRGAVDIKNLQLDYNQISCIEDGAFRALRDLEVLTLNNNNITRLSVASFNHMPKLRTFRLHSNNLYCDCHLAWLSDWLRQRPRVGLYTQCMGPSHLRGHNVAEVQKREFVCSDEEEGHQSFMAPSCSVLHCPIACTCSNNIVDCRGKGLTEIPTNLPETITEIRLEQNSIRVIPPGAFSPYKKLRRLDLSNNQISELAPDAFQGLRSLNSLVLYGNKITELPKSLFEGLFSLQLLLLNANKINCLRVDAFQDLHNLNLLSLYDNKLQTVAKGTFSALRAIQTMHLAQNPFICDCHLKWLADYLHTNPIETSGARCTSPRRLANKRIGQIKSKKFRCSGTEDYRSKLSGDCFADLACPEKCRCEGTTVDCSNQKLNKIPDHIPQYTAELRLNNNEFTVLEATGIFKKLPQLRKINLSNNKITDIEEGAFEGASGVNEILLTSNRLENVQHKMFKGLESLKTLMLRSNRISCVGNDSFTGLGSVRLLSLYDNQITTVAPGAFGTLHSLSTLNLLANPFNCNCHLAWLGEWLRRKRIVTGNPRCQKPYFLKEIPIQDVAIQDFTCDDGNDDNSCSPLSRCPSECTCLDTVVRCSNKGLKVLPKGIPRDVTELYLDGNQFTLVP
Method: as §1

IC50 [1]: 5.7 nM | IC50 [2]: 4 nM
B1: ROBO2-Fc 2.2 (Fc fusion)
chain: SRLRQEDFPPRIVEHPSDVIVSKGEPTTLNCKAEGRPTPTIEWYKDGERVETDKDDPRSHRMLLPSGSLFFLRIVHGRRSKPDEGSYVCVARNYLGEAVSRNASLEVALLRDDFRQNPTDVVVAAGEPAILECQPPRGHPEPTIYWKKDKVRIDDKEERISIRGGKLMISNTRKSDAGMYTCVGTNMVGERDSDPAELTVFERGGSGGSEPKSSDKTHTCPPCPAPEAAGAPSVFLFPPKPKDTLMISRTPEVTCVVVDVSHEDPEVKFNWYVDGVEVHNAKTKPREEQYNSTYRVVSVLTVLHQDWLNGKEYKCKVSNKALPAPIEKTISKAKGQPREPQVYTLPPSREEMTKNQVSLTCLVKGFYPSDIAVEWESNGQPENNYKTTPPVLDSDGSFFLYSKLTVDKSRWQQGNVFSCSVMHEALHNHYTQKSLSLSPG
notes: Labelled with Alexa Fluor 647 in the flow cytometry assay; also called ROBO-Fc 2.2; ROBO2-Fc 2.2-AF647
